# Experimental data published in patent US20120277142A1 (HANALL BIOPHARMA, published 2012).
# Positions count from the first letter of the chain named.
# B1: Met-TNFRI126 (receptor)
# chain: MDSVCPQGKYIHPQNNSICCTKCHKGTYLYNDCPGPGQDTDCRECESGSFTASENHLRHCLSCSKCRKEMGQVEISSCTVDRDTVCGCRKNQYRHYWSENLFQCFNCSLCLNGTVHLSCQEKQNTVC
# notes: also called Wild-type (TNFRI126); wild-type TNFRI
# B2: TNFRI126-A16 (receptor)
# chain: B1 chain with S53K, H56F, R58P, H59A
# notes: Met-TNFRI126 mutant made in E. coli
# B3: TNFRI126-A27 (receptor)
# chain: B1 chain with S53I, E54P, H56F, R58L, H59G
# notes: as for B2
# B4: TNFRI126-A19 (receptor)
# chain: B1 chain with S53D, H56F, R58P, H59A
# notes: as for B2
# B5: TNFRI126-A21 (receptor)
# chain: B1 chain with S53I, H56F, R58P, H59G
# notes: as for B2
# B6: TNFRI126-A25 (receptor)
# chain: B1 chain with S53I, E54P, H56F, R58F, H59A
# notes: as for B2
# B7: TNFRI126-A23 (receptor)
# chain: B1 chain with S53I, E54P, H56F, R58L, H59A
# notes: as for B2
# B8: TNFRI126-A20 (receptor)
# chain: B1 chain with S53E, H56F, R58P, H59A
# notes: as for B2
# B9: TNFRI126-A26 (receptor)
# chain: B1 chain with S53I, E54P, H56F, R58P, H59G
# notes: as for B2
# B10: TNFRI126-A22 (receptor)
# chain: B1 chain with S53M, H56F, R58P, H59G
# notes: as for B2
# B11: TNFRI126-A30 (receptor)
# chain: B1 chain with S53I, E54P, H56F, R58P, H59A
# notes: as for B2
# B12: TNFRI126-A17 (receptor)
# chain: B1 chain with S53R, H56F, R58P, H59A
# notes: as for B2
# B13: TNFRI126-A29 (receptor)
# chain: B1 chain with S53I, E54P, H56F, R58F, H59G
# notes: as for B2
# B14: TNFRI126-A18 (receptor)
# chain: B1 chain with S53H, H56F, R58P, H59A
# notes: as for B2
# B15: TNFRI126-A24 (receptor)
# chain: B1 chain with S53I, E54P, H56F, R58I, H59A
# notes: as for B2
# B16: TNFRI126-S31 (receptor)
# chain: B1 chain with L29V, S53I, H56F, R58P, H59A
# notes: Met-TNFRI126 superlead mutant made in E. coli
# B17: TNFRI126-S56 (receptor)
# chain: B1 chain with L29V, S53M, H56F, R58P, H59A, K122Q
# notes: as for B16
# B18: TNFRI126-S36 (receptor)
# chain: B1 chain with L29V, S53M, H56F, R58P, H59A
# notes: as for B16
# B19: TNFRI126-S54 (receptor)
# chain: B1 chain with L29V, S53I, H56F, R58P, H59A, K122N
# notes: as for B16
# B20: TNFRI126-S41 (receptor)
# chain: B1 chain with L29V, S53H, H56F, R58P, H59A
# notes: as for B16
# B21: TNFRI126-S62 (receptor)
# chain: B1 chain with L29V, S53I, H56F, R58P, H59G, K122Q
# notes: as for B16
# B22: TNFRI126-S53 (receptor)
# chain: B1 chain with L29V, S53I, H56F, R58P, H59A, K122Q
# notes: as for B16
# B23: TNFRI126-S47 (receptor)
# chain: B1 chain with L29V, S53M, H56F, R58P, H59G
# notes: as for B16
# B24: TNFRI126-S59 (receptor)
# chain: B1 chain with L29V, S53H, H56F, R58P, H59A, K122Q
# notes: as for B16
# B25: TNFRI126-S57 (receptor)
# chain: B1 chain with L29V, S53M, H56F, R58P, H59A, K122N
# notes: as for B16
# B26: TNFRI126-S48 (receptor)
# chain: B1 chain with L29V, S53I, E54P, H56F, R58P, H59G
# notes: as for B16
# B27: TNFRI126-S63 (receptor)
# chain: B1 chain with L29V, S53M, H56F, R58P, H59G, K122N
# notes: as for B16
# B28: TNFRI126-S46 (receptor)
# chain: B1 chain with L29V, S53I, H56F, R58P, H59G
# notes: as for B16
# B29: TNFRI126-S60 (receptor)
# chain: B1 chain with L29V, S53H, H56F, R58P, H59A, K122N
# notes: as for B16
# B30: TNFRI171-A22 (receptor)
# chain: MDSVCPQGKYIHPQNNSICCTKCHKGTYLYNDCPGPGQDTDCRECESGSFTAMENFLPGCLSCSKCRKEMGQVEISSCTVDRDTVCGCRKNQYRHYWSENLFQCFNCSLCLNGTVHLSCQEKQNTVCTCHAGFFLRENECVSCSNCKKSLECTKLCLPQIENVKGTEDSGTT
# B31: TNFRI171-A16 (receptor)
# chain: B30 chain with M53K, G59A
# B32: TNFRI171-A2 (receptor)
# chain: B30 chain with M53I, G59A
# B33: TNFRI171-A10 (receptor)
# chain: B30 chain with M53W, G59A
# B34: TNFRI171-A26 (receptor)
# chain: B30 chain with M53I, E54P
# B35: TNFRI171-A9 (receptor)
# chain: B30 chain with G59A
# B36: TNFRI171-A15 (receptor)
# chain: B30 chain with M53Y, G59A
# B37: TNFRI171-A8 (receptor)
# chain: B30 chain with M53F, G59A
# B38: TNFRI171-A30 (receptor)
# chain: B30 chain with M53I, E54P, G59A
# Molecular target: T1, TNF-α (UniProt P01375 77-233, limits assumed)
# T1 construct: also called tumor necrosis factor; ligand
# T1 sequence (P01375 77-233 limits assumed): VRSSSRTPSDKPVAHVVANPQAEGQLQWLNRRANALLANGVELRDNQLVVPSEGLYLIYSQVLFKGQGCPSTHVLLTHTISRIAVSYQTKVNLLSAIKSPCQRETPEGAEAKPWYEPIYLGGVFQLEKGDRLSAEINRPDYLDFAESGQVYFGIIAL
# Assay: competition ELISA: sample vs plate-bound TNFRI190 for TNF-α, from IC50, relative to wild-type TNFRI126
# Method: (§1) Each well was washed three times with 300 μL of washing buffer (0.05% Tween-20, PBS, pH 7.4) and incubated at room temperature for 2 hours with 300 μL of a blocking buffer (5% skim milk, PBS, pH 7.4). Then, each well was washed as mentioned above. A sample of interest was diluted to concentrations of 500 nM, 125 nM, 31 nM, 7.8 nM, 1.9 nM, 0.48 nM, 0.12 nM, and 0.03 nM in series and loaded in an amount of 100 μL into each well in duplicate. To each well was added 100 μL of 50 ng/ml TNF-α, followed by incubation at room temperature for 2 hours. After the wells were washed with a washing buffer, 100 μg/mL anti-TNF-α antibody solution was diluted 1/1000, added in an amount of 100 μL per each well, and incubated at room temperature for 2 hours. After the plates were washed with a washing buffer, a substrate was added in an amount of 100 μL to each well and reacted at room temperature for 15 min. In each well, 100 μL of the substrate 3,3′,5,5′-tetramethylbenzidine (RnD, Cat. No: DY999) was reacted at room temperature for 15 min, followed by adding 50 μL of 1.0 M sulfuric acid (Samchun Chemical, Cat. No: 52129) to each well to stop the reaction.
# Affinity of Met-TNFRI and Met-TNFRI mutants for TNF-α was determined by measuring an absorbance change with concentration and evaluating IC₅₀ value by measuring an absorbance change with concentration.
row,Binder,Affinity (%)
1,B1,100%
2,B2,882%
3,B3,894%
4,B4,482%
5,B5,1400%
6,B6,682%
7,B7,1100%
8,B8,782%
9,B9,1140%
10,B10,1430%
11,B11,952%
12,B12,771%
13,B13,435%
14,B14,1010%
15,B15,1060%

# Molecular target: T1, TNF-α
# Assay: as above
# Remark: another data set of the same source
# Method: as §1
# The affinity of the Met-TNFRI for TNF-α was assayed using the same procedure as in [Experimental Example 1]
row,Binder,Relative Affinity for Ligand (%)
1,B1,100%
2,B16,457%
3,B17,602%
4,B18,489%
5,B19,448%
6,B20,432%
7,B21,543%
8,B22,522%
9,B23,501%
10,B24,463%
11,B25,465%
12,B26,477%
13,B27,486%
14,B28,412%
15,B29,397%

# Molecular target: T1, TNF-α
# Assay: cell-based or functional assay
row,Binder,Relative Activity (Cytotoxicity-neutralizing activity) (fold)
1,B30,242 fold
2,B31,139 fold
3,B32,207 fold
4,B33,44 fold
5,B34,196 fold
6,B35,158 fold
7,B36,142 fold
8,B37,120 fold
9,B38,127 fold
